Read-outs that look alike come from different tables or passages of the source.
T1: cynomolgus CXCL13 (cynomolgus, UniProt H6WS58 23-109)
T1 construct: also called cynoCXCL13; Cyno CXCL13
T1 sequence: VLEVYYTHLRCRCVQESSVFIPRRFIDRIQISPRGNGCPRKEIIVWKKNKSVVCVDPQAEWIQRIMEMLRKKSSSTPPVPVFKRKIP

T2: human CXCL13 (human, UniProt O43927 23-109)
T2 construct: also called huCXCL13; rhCXCL13
T2 sequence (looked up): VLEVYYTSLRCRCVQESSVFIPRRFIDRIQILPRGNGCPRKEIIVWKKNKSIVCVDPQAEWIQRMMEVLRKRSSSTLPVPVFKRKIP


What was measured:
cynomolgus CXCL13 = target: T1, cynomolgus CXCL13; assay: ELISA, coated antigen, chimeric IgG1
Protocol: (§1) Elisa based binding assay. […] Briefly, 100 μl of human CXCL13 or cynomolgus CXCL13 was coated at 0.5 μg/ml overnight and then blocked by 200 μl of 5% BSA in PBS. Serial diluted antibodies were incubated with the coated antigen for 30 min at RT. The resulting plates were washed with PBS/T and incubated with goat anti-human IgG Fc-HRP for 30 min RT. The plates were developed with TMB substrate after washing with 1×PBST for 5 times and reaction stopped with 1N HCl and analyzed by spectrophotometer at OD 450-630 nm.

human CXCL13 [1] = target: T2, human CXCL13; assay: ELISA, coated antigen, chimeric IgG1
Protocol: as §1

human CXCL13 [2] = target: T2, human CXCL13; assay: cell-based blocking ELISA, CXCL13 to CHO-K1-CXCR5
Protocol: This example tested the blocking of the anti-CXCL13 chimeric antibodies to CHO-K1-CXCR5 cells. Briefly, 5×10⁴ CHO-K1-CXCR5 cells were plated in 96-well plate with 100 μl of culture medium and incubated at 37° C. overnight. Cells were fixed with 100 μl of 2% PFA at RT for 1 hr after washing with PBS for 1 time. Samples were blocked with 1% BSA in PBST for 1 hr at RT. Antibodies were serial diluted from 50 μg/ml by 3-fold with 1% BSA/PBST and pre-incubated with equal volume of 0.3 μg/ml human CXCL13 for 30 min at RT. 100 μl of antibody-antigen complex was transferred into each cell wells for 30 min at RT. Samples were washed with 1×PBST for 3 times and 100 μl of 3 μg/ml of human Mab5261 antibody was added into each well to capture human CXCL13 and anti-human Fc-HRP was used to indirectly detect human CXCL13 when it bound to CHO-K1-CXCR5 cells.
Then read at 450 nm. […] Among all clones, 415A3D1, 64C10G1, 1H3A11, 414D10F5, 411A11E9, 21H12D9, 71F4A3, 329F2E1 show completely blocking activity and 408E3F3, 19H7E10, 339A6E7 appeared to be partial blockers.

human CXCL13 [3] = target: T2, human CXCL13; assay: SPR Biacore T200
Protocol: (§2) In the second approach, mutations were carried out by multiple libraries including 4 different sub libraries, such as saturated mutation libraries by CDR walking for CDR L1, CDR L3, CDR H3 or CDR L2, CDR H1, CDR H2 and saturated mutation libraries by three aa mutated continuously for CDR H3 or CDR L3. After finishing construction of phage sub libraries, antigen CXCL13 screening followed. Antibodies of these sequences were generated, and affinity testing was performed by Biacore T200. To further optimize the antibodies, the lead clones were then back mutated to its humanized counterpart one aa by one aa. Sequences were generated and synthesized for antibodies. Affinity was tested by Biacore T200.

human CXCL13 [4] = target: T2, human CXCL13; assay: SPR Biacore T200; remark: listed apart in the source
Text: In the first approach, mutations were chosen to target the hotspots in LCDR1, HCDR2 and HCDR3. Usually, CDR3 contributes most to antigen binding and heavy chain is more important than light chain for antigen binding. Moreover, LCDR1 is important for antigen binding. For the first trial, random mutations were targeted to hotspots in LCDR1, HCDR2 and HCDR3. Eliminate hotspots that code for conserved and buried amino acids in CDRs. […] After finishing construction of phage library, antigen CXCL13 screening was followed. Antibodies of these sequences were generated, and affinity testing was performed by Biacore T200.

human CXCL13 [5] = target: T2, human CXCL13; assay: SPR Biacore T200; remark: listed apart in the source
Protocol: as §2

human CXCL13 [6] = target: T2, human CXCL13; assay: ELISA, huCXCL13 coated on the plate, full length humanized IgG1 titrated, OD450
human CXCL13 [7] = target: T2, human CXCL13; assay: ELISA, huCXCL13 coated on the plate, chimeric IgG1 titrated, OD450
Outline: (§3)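 Plates were coated overnight with 100 μl of human CXCL13 at 0.5 μg/ml, then blocked with 200 μl of 5% BSA in PBS. Serial dilutions of IgG1 antibodies were allowed to bind for 30 min at room temperature, and after washing with PBS/T, goat anti-human IgG Fc-HRP was applied for 30 min at room temperature. The EC50 was derived from the antibody titration.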

human CXCL13 [8] = target: T2, human CXCL13; assay: ELISA, huCXCL13 coated on the plate, full length humanized IgG1 titrated, OD450; remark: listed apart in the source
Outline: as §3

EC50 (cynomolgus CXCL13) [µg/mL]	EC50 (human CXCL13 [1]) [µg/mL]	IC50 (human CXCL13 [2]) [µg/mL]	Binder	also measured
1.19	0.0628	1.26	414D10F5 chimeric human IgG1 antibody (antibody, V domains shown, Chimeric human IgG1) VH: EVQLAESGGGLVQPGRSLKLSCSASGFTFSDYYMAWFRQAPPKGLEWVASISYDGGDSFYRDSVKGRFTISRDNAKSSLYLQMDSLRSEDTATYYCTTEEDYSGSFPDYWGQGVMVTVSS VL: DIQMTQSPSFLSASVGDRVTINCKASQNINKYLNWYQQKLGEAPKRLIYDTNNLQAGIPSRFSGSGSGTDYTLTINSLQPEDFATYFCLQHNSLYTFGGGTKLELK	
0.1	0.0485	1.71	411A11E9 chimeric human IgG1 antibody (antibody, V domains shown, Chimeric human IgG1) VH: EVQLVESGGGLVQPGGSLKLSCVVSGFTFSDYYMAWVRQTPTKGLEWVASINYDGGDTYYRDSVKGRFTVSRNNAKSSLFLQMDSLRSEDTATYYCKTEEDYDGSYVMDAWGQGASVIVSS VL: DIQMTQSPSFLSASVGDRVTISCKASQNINKELTWYQQKLGKAPKRLIYNTNILQTGIPSRFSGSGSNTDYTLTISSLQPEDFATYFCLQQSSLYTFGAGTKLELK	
			71F4A3-VH1VL1 (Hz71F4) (D54E) humanized IgG1 (antibody, V domains shown, Full length IgG1, human gamma 1 and kappa; also called Hz71F4A3) VH: EVQLVESGGGLVQPGGSLRLSCAASGIDFSRYWMSWVRQAPGKGLEWVAEINPESSTINYAPSLKDRFTISRDNAKNSLYLQMNSLRAEDTAVYYCARQDDYEYYAMDYWGQGTTVTVSS VL: DIQMTQSPSSLSASVGDRVTITCKASQDVNTGVAWYQQKPGKAPKLLIYSASYRYTGVPSRFSGSGSGTDFTFTISSLQPEDIATYYCQQYYSTPLTFGGGTKLEIK	apparent koff (pooled screen) (human CXCL13 [3]): 0.00126 s⁻¹; apparent kon (pooled screen) (human CXCL13 [4]): 377000 M⁻¹ s⁻¹; apparent Kd (pooled screen) (human CXCL13 [5]): 2.58 nM; apparent koff (pooled screen) (human CXCL13 [5]): 0.000645 s⁻¹; apparent kon (pooled screen) (human CXCL13 [5]): 250000 M⁻¹ s⁻¹; apparent EC50 (pooled screen) (human CXCL13 [6]): 0.108 nM
			71F4A3-VH1VL2 (D54E) humanized IgG1 (antibody, V domains shown, Full length IgG1, human gamma 1 and kappa constant domains) VH: EVQLVESGGGLVQPGGSLRLSCAASGIDFSRYWMSWVRQAPGKGLEWVAEINPESSTINYAPSLKDRFTISRDNAKNSLYLQMNSLRAEDTAVYYCARQDDYEYYAMDYWGQGTTVTVSS VL: DIQMTQSPSSLSASVGDRVTITCKASQDVNTGVAWYQQKPGKAPKLLIYSASYRYTGVPSRFSGSGSGTDFTFTISSVQPEDIATYYCQQYYSTPLTFGGGTKLEIK	EC50 (human CXCL13 [6]): 0.0961 nM
			005-2-45 (antibody, V domains shown) VH: EVQLVESGGGLVQPGGSLRLSCAASGIDFSRYWMSWVRQAPGKGLEWVAEINPESSTINYAPSLKDRFTISRDNAKNSLYLQMNSLRAEDTAVYYCARQDDTRYYAMDYWGQGTTVTVSS VL: DIQMTQSPSSLSASVGDRVTITCKASQDVNTGVAWYQQKPGKAPKLLIYSASYRYTGVPSRFSGSGSGTDFTFTISSLQPEDIATYYCQQYYSTPLTFGGGTKLEIK	koff (human CXCL13 [3]): 0.000776 s⁻¹
			005-3-23 (antibody, V domains shown) VH: EVQLVESGGGLVQPGGSLRLSCAASGIDFSRYWMSWVRQAPGKGLEWVAEINPESSTINYAPSLKDRFTISRDNAKNSLYLQMNSLRAEDTAVYYCARQEDYEYYALDYWGQGTTVTVSS VL: DIQMTQSPSSLSASVGDRVTITCKASQDVNTGVYWYQQKPGKAPKLLIYSASYRYTGVPSRFSGSGSGTDFTFTISSLQPEDIATYYCQQGYSTPLTFGGGTKLEIK	koff (human CXCL13 [3]): 0.000403 s⁻¹
			005-3-18 (antibody, V domains shown) VH: EVQLVESGGGLVQPGGSLRLSCAASGIDFSRYWMSWVRQAPGKGLEWVAEINPESSTINYAPSLKDRFTISRDNAKNSLYLQMNSLRAEDTAVYYCARQDDYEYYTMDYWGQGTTVTVSS VL: DIQMTQSPSSLSASVGDRVTITCKVSQDVNTGVAWYQQKPGKAPKLLIYSASYRYTGVPSRFSGSGSGTDFTFTISSLQPEDIATYYCQQYWSTPLTFGGGTKLEIK	koff (human CXCL13 [3]): 0.000158 s⁻¹; Kd (human CXCL13 [5]): 1.24 nM; koff (human CXCL13 [5]): 0.000153 s⁻¹; kon (human CXCL13 [5]): 124000 M⁻¹ s⁻¹
0.0469	0.0729	0.985	415A3D1 chimeric human IgG1 antibody (antibody, V domains shown, Chimeric human IgG1; label 415A3D1 read as clone 415A3D1F4) VH: EVKLLESGGGLVQAGGSMRLSCGAFGFTVTDFYINWIRQPAGKAPEWLGFMRNKANGYTTEYNPSVKGRFTISRNNTQNMPYLQMNTLRTEDTAIYYCARSRYNADDYYVGVMDVWGQGASVTVSS VL: DIQMTQFPASLSASLGETVSIECLASEDIYNNLAWYQQKPGKSPQLLIYYTNSLQDGVPSRFSGTGSGTQYSLKINSLESEDAATYFCLQDSEYPWTFGGGTKLKLK	
0.0416	0.0511	3.55	329F2E1 chimeric human IgG1 antibody (antibody, V domains shown, Chimeric human IgG1) VH: EVKLLQSGGGLVQPGGSLKLSCAASGIDFSRYWMSWVRRAPGKGLEWIGEINPDSSTINYAPSLKDKFIISRDNAKNTLYLQMSKVRSEDTALYYCARQDDYDYYAMDYWGQGTSVTVSS VL: DIVMTQSHKFMSTSVGDRVSITCKASQDVSTGVAWYQQKPGQSPKLLIYSASYRYTGVPDRFTGSGSRTDFTFTISSVQTEDPAVYYCHQYYTIPLTFGAGTELELK	
0.0563	0.0401	1.1	64C10G1 chimeric human IgG1 antibody (antibody, V domains shown, Chimeric human IgG1; also called chimeric 64C10G1) VH: EVQLVESGGGLVKPGGSLKLSCAASGFTFSSYAMSWVRQTPEKRLEWVATISDGGSDAYYPDNVKGRFTISRDNAKNNLYLQMSHLKSEDTAMYYCARDYYGSGYEDSPMDYWGQGTSVTVSS VL: DIQMTQSPSSLSASLGGKVTITCKASQDINKYIAWYQHKPGKGPRLLIHYTSTLQPGIPSRFSGSGSGRDYSFSISNLEPEDFATYYCLQYDNLYTFGGGTKLEIK	EC50 (human CXCL13 [7]): 0.0305 nM
0.144	0.0553	1.19	1H3A11 chimeric human IgG1 antibody (antibody, V domains shown, Chimeric human IgG1) VH: EVQLVESGGGLVKPGGSLKLSCAASGFTFSSYAMSWVRQTPEKRLEWVATISDGGSDTYYPDNVKGRFTISRDNAKNNLYLQMSHLKSEDTAMYYCARDYYGSSYEDYAMDYWGQGTSVTVSS VL: DIQMTQSPSSLSASLGGKVTITCKASQDINKYITWYQHKPGKGPRLLIHYTSTLQPGIPSRFSGSGSGRDYSFSISNLEPEDIATYYCLQYDNLYTFGGGTKLEIK	
			64C10G1-VH1VL3 (D53E, D107E) humanized IgG1 (antibody, V domains shown, Full length IgG1, human gamma 1 and kappa constant domains) VH: EVQLVESGGGLVQPGGSLRLSCAASGFTFSSYAMSWVRQAPGKGLEWVATISEGGSDAYYPDNVKGRFTISRDNAKNSLYLQMNSLRAEDTAVYYCARDYYGSGYEESPMDYWGQGTLVTVSS VL: DIQMTQSPSSLSASVGDRVTITCKASQDINKYIAWYQQKPGKAPKLLIHYTSTLQPGIPSRFSGSGSGTDFTFTISSLQPEDFATYYCLQYDNLYTFGGGTKLEIK	EC50 (human CXCL13 [8]): 0.0664 nM
0.0488	0.0536	1.89	21H12D9 chimeric human IgG1 antibody (antibody, V domains shown, Chimeric human IgG1) VH: EVQLQQSGPVLVRPGASVKMSCKASGYTFTDYYMNWVKQSHGKSLEWIGVINPNNGGTTYKEKFKGKATLTVDKSSGTAYMELNSLTSEDSAVYYCARDDYDAGYWGQGTTLTVSS VL: DIVMTQFQKFMSTTVGDRVSITCKASQNVDTAVAWYQHKPGQSPKLLIYSASHRYTGVPDRFTGSGSGTDFTLTISNVQSEDLADYFCQQYTDFPLTFGAGTKLELK	
